Reference: US10562935B2, “Stapled peptides and uses thereof” (London Health Sciences Centre Research Inc., priority 2015, dated 2020)

Assay: Circular dichroism (CD) spectroscopy of HABD2 peptides in Milli-Q water (Example 1)
Format: physicochemical
From the text: In addition, a large mean residue ellipticity indicates greater α-helical character. […] This was predicted to be the case, as there is a lack of contributing residues that might form a hydrophobic core, thereby helping to stabilize the secondary structure of the linear peptide. For this reason, bridges were introduced into the peptides. […] The differences in α-helicity induced by the bridges placed at different points within each peptide may be due to the differences in their primary sequences. Specifically, two amino acids (at the i and i+4 position) have to be replaced in order to form the lactam bridge. In compound 133, leucine was replaced at both the i and i+4 position; while in compound 136, glutamine was replaced at the i position and aspartic acid was replaced at i+4. Leucine and glutamine are proposed to be helix-stabilizing residues.
A larger portion of the RHAMM protein was used as the reference for α-helical character of the truncated peptides. 7 kDa RHAMM (SEQ ID NO: 1) is a mini protein that is composed of 62 amino acids, which was derived from the C-terminus of the full-length RHAMM sequence. It contains both HABDs, and is predicted to have almost complete α-helix shape, similar to that of native full-length RHAMM.
A peptide's α-helicity can be quantified using equations 1-3: fH=[([θ]obs222−[θ]c)/([θ]max222−[θ]c)] (Equation 1) [θ]c=2220+53T (Equation 2) [θ]max222=(−44000+250T)(1−k/N) (Equation 3) where fH is the ratio of the average number of helical hydrogen bonds divided by the total number of hydrogen bonds that can be found in a peptide, T is the temperature in degrees Celsius, N is the number of residues in the peptide and k is a constant of ellipticity when 100% of the structure is α-helical (3 for carboxyamidated peptides).
Milli-Q water was chosen as the solvent in which all peptides would be dissolved for CD spectroscopy, as it is a UV invisible solvent, which is a requirement of the analytical technique, and it represents RHAMM's natural environment in the body. Luo and Baldwin [18] stated that when peptides are taken out of their native protein sequence, they usually show little to no helical formation in water alone. For this reason, TFE/H2O solutions are commonly used in studies to observe the α-helix characteristics, and may improve the helical nature of the peptides observed here. However, a helix-stabilizing solvent, such as TFE, would not be as contextually relevant, as there are no solvent stabilizing effects in the body. Thus use of TFE would tend to produce skewed results and not be representative of the peptide's natural behavior.

Q: Which “[θ]222/[θ]208 ratio of ellipticities” value (0.5 mM in Milli-Q water) does the source give for Ac-VSKLRSQLVKRKQN-NH2 [Compound 132] here?
A: 0.27

Q: And the fH fraction helicity (0.5 mM in Milli-Q water, equations 1-3)?
A: 0.13

Q: And the “α-helical character by CD (in words)” value (Milli-Q water)?
A: minimal α-helical character

Q: What about the “Molar ellipticity [θ]192” value (λ = 192 nm, 0.5 mM in Milli-Q water) of the same substance?
A: −433.48 deg cm^2 dmol^−1 residue^−1

Q: And the “Molar ellipticity [θ]208” value (λ = 208 nm, 0.5 mM in Milli-Q water)?
A: −4944.38 deg cm^2 dmol^−1 residue^−1

Q: And the “Molar ellipticity [θ]222” value (λ = 222 nm, 0.5 mM in Milli-Q water)?
A: −1339.76 deg cm^2 dmol^−1 residue^−1
